Test results reported in the supplement of paper PMC9170038.

System: MS2 coat protein
Test: apparent KD of MS2 coat protein; higher = weaker reporter binding
Conditions: Eterna round: R107
Method: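 RNA-MaP round R107: designed RNA switches with theophylline, tryptophan, arginine or FMN aptamers are transcribed on-chip within common flanks. They are titrated with SNAP-549-labelled MS2 coat protein in RNA-MaP buffer (100 mM Tris pH 7.5, 80 mM KCl, 4 mM MgCl2), without ligand or with the indicated ligand. Median apparent KD per design.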

[1] = input ligand: theophylline 20 uM
[2] = input ligand: theophylline 2 mM
[3] = input ligand: tryptophan 2.4 mM

Sequence	apparent KD of MS2 coat protein (input ligand: arginine 13.2 mM) [nM]	apparent KD of MS2 coat protein (input ligand: none) [nM]	apparent KD of MS2 coat protein [1] [nM]	apparent KD of MS2 coat protein [2] [nM]	apparent KD of MS2 coat protein [3] [nM]
GCGGUGGUCGGAAGGAGCGACAUGAGGAUCACCCAUGUCUCCCGUUAUGGGAGUUCCUUAGGUCAGGUAGGUCGCCGACUGCCGC [#1 Exclusion - Arginine B Attempt #21 (Inspired by Omei)]	105	195	234	260	227
UUCGUAUUGUCGGCCGCCACUGCAACAUGAGGAUCACCCAUGUAAGAAUGGUUGUAAAUAUAUUACAGGACCGGGACAAUAGUAA [JR_ExcTryptoB_Sub018]	16	–	24.1	23.4	–
UGUAUGGACUGAAGGAGCGCCUCAAAAUAACAUGAGGAUCACCCAUGUAGGCGAAAGCCUGGGCAGGUAGGUCGCAGUCCAUACU [ArgBX 2 #StaticStem #MS2Late]	20.9	12.9	21.4	13.4	12.4
CAUAUUGUAACUGAUACCAGUGUACUGACAUGAGGAUCACCCAUGUUGGGUUUUGUUGUACACCCUUGGCAGCAGAAUCAAUAUG [AstrosExyTheB#4]	45.6	–	74.2	–	60.4
UUAUUUAUAGGCGAUACCAGCCGAAUGGCCGCAAAUCCUAACAUGAGGAUCACCCAUGUCGGCCCUUGGCAGCGCCUAUGGGUUU [XTheo B #27]	114	94.7	255	480	93.3
AUACAUGAGGAUCACCCAUGUAUAGAUGAAGGAGCGACCAGAGGGUCAGGUAGGUCGCAUCACAUGAGGAUCACCCAUGUAUUUU [DOUBLE!!! :-D #10]	41.9	64	67.8	64.4	43.7
AUAAUGGGUUUCGGACUAUCAUGGAAUGAUACCAGAUACUUAGAAAUCCCUUGGCAGCAUGAGGACAUGAGGAUCACCCAUGUAU [Th A Ex t1]	41.9	–	78.9	–	71.4
GAGUUCCUGAGAGAUACCAGUGAGGCCACAUGAGGAUCACCCAUGUCCCUCACUCCGGCCCACCCUUGGCAGCUCGAAAGAUAUU [Exclusion Theophylline B GF 22]	11.3	–	16.7	–	12.1
UAAUCCGGUCCUCGAUAACAUGGGUGAAUACGAGGACCGGUACGGCCGCCACUCGAUAACAUGAGGAUCACCCAUGUAAUAAUAA [|T'-M'-Trp-Ms2|_Design15]	38.2	–	111	73.6	–
UUAAUCAUUAUAGAAAACUAUAAUGCAGAAGGAGCGUGAUAAAACACAGGUAGGUCGCUGAAGGGAACAUGAGGAUCACCCAUGU [AstrosSSArgA#6]	21.3	30.3	37.8	39.4	28.8
AAUGUGAAGGCGGCCGCCACUGAUAAUAGACAUGAGGAUCACCCAUGUAUAAAUCCUCAAUAAGACAGGACCGGGCCAUCUACGU [#25 Exclusion Tryptophan B]	59	–	134	122	–
UGACAUUGCUCAGAUACCAGACGUGAGGAUCACCCACGUGCCAACAAGUACAAAAUAAAUGUCCCUUGGCAGCUGAGCAAUGUCU [TheoBX 26 #MS2Left #AlternativeMS2 #Theo22]	9.64	9.95	12.7	14.1	10.9
CGAGUAAGAACAAUCGAAUAACGGUUUUCGCGAGGACCGGUACGGCCGCCACUCGUGUGAUAUAACACAUGAGGAUCACCCAUGU [3'end-1]	25.3	–	37.6	34.9	–
AUAACAUGAGGAUCACCCAUGUAAGCUGAAGGAGCGCUGGAAACAGCAGGUAGGUCGCAGCAUGUUUCCACAUGGGUAGGAAACU [(M1)-(M2)-(Arg1)-(Arg2)-(A)'-(M)'-(A)''_Design8]	42.4	80	86.2	123	49.5
UGACAUUGCUCAGAUACCAGACACGAGGAUCACCCGUGUGCCAACAAGUACAAAAUAAAUGUCCCUUGGCAGCUGAGCAAUGUCU [TheoBX 24 #MS2Left #AlternativeMS2 #Theo22]	11.9	12.2	16	26.1	12.2
CUCCUGGGAGCGGCCGCCACUGGAGGCCUUGCGCGACAUGAGGAUCACCCAUGUUGGCCCGGCCUCAGGACCGGGUUCGCGCGAG [Same State - Tryptophan B Attempt #2]	12.3	11.3	12.3	9.73	10.1
UGACAUUGCUGCGAUACCAGACAUGAGGAUCACCCAUGUACCAAGGUAAGAAAAUAACAUGUCCCUUGGCAGCGCAGCAAUGUCU [MAT - Exclusion Theophlline B - Mod of Eli - D1]	18.9	–	40.2	–	14.4
GGUAUUGGAACAGAUACCAGUAUCUGUUGAUCCUACAUGAGGAUCACCCAUGUUAGAAAGUACCCUUGGCAGCUGUAAUAAUGCC [Theo B Ex t1]	52.7	–	76.6	–	49.4
AUGUUUGUGUGAGAUACCAGUGAGGCCACAUGAGGAUCACCCAUGUCCCUCACUCCGGCCCACCCUUGGCAGCUCUUAUAGUAAA [Exclusion Theophylline B GF 25]	12	–	12.9	–	10.4

Sequence	apparent KD of MS2 coat protein (input ligand: arginine 13.2 mM) [nM]	apparent KD of MS2 coat protein (input ligand: none) [nM]	apparent KD of MS2 coat protein [1] [nM]	apparent KD of MS2 coat protein [2] [nM]	apparent KD of MS2 coat protein [3] [nM]
CUUCAACAUGAGGAUCACCCAUGUAGUGAUACCAGUCACUCAUACGACCCUUGGCAGCACAUUUUCUGUCGGCAUGUAGACGAUC [theeternabot_sameState_MS2_Theo_A_33]	73.6	–	172	–	173
CUCCUGUGAGCGGCCGCCACUGGAGGCCUCGCGCGACAUGAGGAUCACCCAUGUUGGCCCGGCCUCAGGACCGGGUUCGCGCGAG [Same State - Tryptophan B Attempt #4 (HarryS)]	7.89	11.1	15.4	10.7	10.9
AAGUGGCACGGAAGGAGCGAGUUUACCUAGAUAACAUGAGGAUCACCCAUGUAUAAUGGGACUCAGGUAGGUCGCCGUUGUCACU [#29 Same State - Arginine B]	24.9	34.8	51	32.8	30.7
UGUGGGUCCGAAGAUACCAGCCAGCACAGCAUGUGUUUAAACAUGAGGAUCACCCAUGUCGGCCCUUGGCAGCUUGGUUUGGACG [theeternabot_exclusion_MS2_Theo_B_7]	15.5	–	19.8	–	15.8
UUAUGCAGGUCGGCCGCCACUACACACAUGAGGAUCACCCAUGUAGUUACUGGGUGAAGUGGCAGUAGGACCGGGACCCGCACAU [Brourdmod21]	151	367	388	612	383
CCGCCCACGAAUGAUACCAGCUAAAAUCAUGUACCAGACACAUGAGGAUCACCCAUGUAAAGCCCUUGGCAGCGUACGCCACCCG [e-theoB-?]	25.5	–	43.7	–	25.8
ACACGGGCAUGAGGAUCACCCAUGUAAUAACGAGGACCGGUACGGCCGCCACUCGUGCACCGUGACCUGUACGAAAAGUGCAGGA	13.6	20.8	26.5	29.5	9.98
UAUCGUCAGACGGCCGCCACUAGAACAUGAGGAUCACCCAUGUACGGCCGCCCGGUGUGAUCCACUAGGACCGGGUCUGACGAAU [(Trp1)-(Ms2)-(T)'-(M)'-(Trp2)_Design23]	39.3	66.8	77.9	95.7	53.8
UCGCUCUGGGUGAGUUCCGGAGAUGUGGAAGGAGCGCUCGAAAGAGCAGGUAGGUCGCCAACGGACAUGAGGAUCACCCAUGUAC [Same State - Arginine A (Freestyle 21)]	33.8	39.1	76.1	34.4	40.3
CCUGAUAACUGAAGGAGCGAGAAACCCUACAUGAGGAUCACCCAUGUAUACACGGGAACUUCUCAGGUAGGUCGCAGUUUGUCAG [Adiso]	48	101	165	138	71.5
AGAAUAACAUGAGCAAAGCUCAUGUGCGAAGGAGCGGCGGAAACGCCAGGUAGGUCGCGCACAUGAGCAUCAGCCAUGUGUACCA [Omei Arginine B SS A v5]	11.5	30.7	201	65.8	58.9
GAUAGUUGAUGGGAUACCAGCCUACACAUGAGGAUCACCCAUGUGAUUCGUGUACGACUGGGCCCUUGGCAGCCCAUAUUGUGUA [#12 Same State - Theophylline B]	46.1	–	202	–	128
AAUACAUGAGGAUCACCCAUGUAAGCUGAAGGAGCGCUGGAAACAGCAGGUAGGUCGCAGCUGCGACCUUGGUGAUCUAGGUCGC [(M1)-(M2)-(Arg1)-(Arg2)-(A)'-(M)'-(A)''_Design7]	17.5	36.6	35.8	46.7	24.3
AUAUGAUCAUGUGAUACCAGAAAUGGUAGUCUUCACUGGAUUACAUGAGGAUCACCCAUGUUCCCUUGGCAGCAUAUGAUCAUAU [#03 Exclusion-TheophyllineB]	31.7	–	68.2	–	43.9
AAGACGCCGGGAAGGAGCGCAUCCAAACCACACAUGAGGAUCACCCAUGUAUAAAUAUGCAUGCAGGUAGGUCGCCCGAUGUCCC [Orbemative]	32.4	31.6	48.8	42.6	36.5
AGUUAUUCGAACAUGGUUGACGAGUGGCAACGAGGACCGGUACGGCCGCCACUCGAAUAAACAUGAGGAUCACCCAUGUACAAAU [T''-M'-T'-T-MS2 - Design 10]	72.1	–	264	442	–
UGACAUUGCUCAGAUACCAGACAUGAGGAUCACCCAUGUACCAAGGUACGAAAAUAACAUGUCCCUUGGCAGCUGAGCAAUGUCU [First try 2 #MS2Left #Theo2]	16.7	–	27.6	–	12.4
UAAUGCAGGUCGGCCGCCACUACAACAUGAGGAUCACCCAUGUACAUGUUGUAGUACGGUAUGAGUAGGACCGGGACCUGCAUAA [Trp-Ms2-M'-T'-(MT)'_Design1]	213	299	154	594	787
